Results from the supplement of paper PMC7877785.
± gives the uncertainty stated by the source.

Experiment: self-splicing fitness, log relative to wild type (ln ratio); higher = more splicing; Tetrahymena group I intron in knt gene, E. coli kanamycin selection, DiMSum; sequences stand for … in CUCUCU…GGAGGGAAAAGUUAUCAGGCAUGCACCUGGUAGCUAGUCUUUAAACCAAUAGAUUGCAUCGGUUUAAAAGGCAAGACCGUCAAAUUGCGGGAAAGGGGUCAACAGCCGUUCAGUACCAAGUCUCAGGGGAAACUUUGAGAUGGCCUUGCAAAGGGUAUGGUAAUAAGCUGACGGACAUGGUCCUAACCACGCAGCCAAGUCCUAAGUCAACAGAUCUUCUGUUGAUAUGGAUGCAGUUCACAGACUAAAUGUCGGUCGGGGAAGAUGUAUUCUUCUCAUAAGAUAUAGUCGGACCUCUCCUUAAUGGGAGCUAGCGGAUGAAGUGAUGCAACACUGGAGCCGCUGGGAACUAAUUUGUAUGCGAAAGUAUAUUGAUUAGUUUUGGAGUACUCGUGGUCG
Outline: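 The eight P1ex-region nucleotides of an intron in the knt kanamycin-resistance gene on pET-22b(+) were all randomised and the library put into E. coli BL21(DE3). Six replicate transformations were grown overnight at 37°C or 30°C on LB agar with or without 25 μg/mL kanamycin, together with 100 μg/mL carbenicillin, 50 μM IPTG and 0.2% rhamnose. Colonies were pooled and amplicon-sequenced on an Illumina HiSeq 2500. Fitness from DiMSum is the error-weighted combination of wild-type-normalised replicate fold changes, kanamycin over none.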

Row | Sequence | self-splicing fitness (ln) (30 °C) | self-splicing fitness (ln) (37 °C)
1 | AGAAAGCAAUAUUACGAUUC | -1.03 ± 0.095 | -1.07 ± 0.14
2 | UUCCAGCAAUAUUACGGGGU | -3.02 ± 0.12 | -2.81 ± 0.17
3 | UGGCAGCAAUAUUACGCAGA | -1.21 ± 0.14 | -0.916 ± 0.12
4 | GCCGAGCAAUAUUACGCGCU | -1.78 ± 0.2 | -2.77 ± 0.34
5 | AGUCAGCAAUAUUACGGCAG | -0.629 ± 0.11 | -0.145 ± 0.15
6 | AAGGAGCAAUAUUACGUGGA | -2.36 ± 0.2 | -1.75 ± 0.2
7 | AUAAAGCAAUAUUACGAGAU | -2.31 ± 0.11 | -1.22 ± 0.12
8 | UGAUAGCAAUAUUACGGGUU | -3.88 ± 0.23 | -1.98 ± 0.17
9 | UAGCAGCAAUAUUACGAAGG | -2.85 ± 0.12 | -2.21 ± 0.19
10 | CUCAAGCAAUAUUACGGCUC | -3.53 ± 0.26 | -1.34 ± 0.21
11 | UGAUAGCAAUAUUACGGAUG | -1.33 ± 0.1 | -0.978 ± 0.12
12 | GCCCAGCAAUAUUACGGUCC | -3.39 ± 0.18 | -1.97 ± 0.28
13 | UUAUAGCAAUAUUACGGAAG | -2.21 ± 0.26 | -1.77 ± 0.26
14 | CCAAAGCAAUAUUACGACGG | -3.1 ± 0.14 | -2.43 ± 0.19
15 | UUCUAGCAAUAUUACGCGAA | -2.25 ± 0.21 | -1.3 ± 0.2
16 | CAUAAGCAAUAUUACGGAAA | – | -0.782 ± 0.37
17 | UCCGAGCAAUAUUACGGUCG | -3.68 ± 0.47 | -2 ± 0.45
18 | ACAGAGCAAUAUUACGCUAU | -3.38 ± 0.27 | -1.12 ± 0.19
19 | CGAGAGCAAUAUUACGAUCA | -2.63 ± 0.38 | -1.75 ± 0.38
20 | UACCAGCAAUAUUACGCAGA | -1.24 ± 0.11 | -0.165 ± 0.11
21 | AGCCAGCAAUAUUACGAUGU | -2.62 ± 0.16 | -1.32 ± 0.13
22 | UCAUAGCAAUAUUACGACAU | -4.005 ± 0.032 | -2.92 ± 0.042

Row | Sequence | self-splicing fitness (ln) (30 °C) | self-splicing fitness (ln) (37 °C)
23 | GGCGAGCAAUAUUACGACGA | -3.06 ± 0.32 | -1.32 ± 0.26
24 | UAAUAGCAAUAUUACGUACU | -1.91 ± 0.094 | -0.805 ± 0.088
25 | GUCUAGCAAUAUUACGGGCA | -3.1 ± 0.44 | -1.43 ± 0.21
26 | GGUAAGCAAUAUUACGAUGC | -0.616 ± 0.13 | -0.401 ± 0.16
27 | AAGCAGCAAUAUUACGAUAG | -3.63 ± 0.2 | -1.45 ± 0.15
28 | CCCCAGCAAUAUUACGUCCC | -2.21 ± 0.36 | –
29 | UACCAGCAAUAUUACGAGAG | -2.64 ± 0.12 | -1.12 ± 0.081
30 | GUAUAGCAAUAUUACGUUAU | -3.09 ± 0.36 | -1.99 ± 0.21
31 | AGUGAGCAAUAUUACGAUCU | -1.7 ± 0.14 | -1.13 ± 0.15
32 | GGGGAGCAAUAUUACGGAAU | – | -1.68 ± 0.33
33 | GCGUAGCAAUAUUACGACGU | -3.1 ± 0.16 | -1.45 ± 0.28
34 | UGCAAGCAAUAUUACGUGUG | -2.69 ± 0.098 | -2.81 ± 0.14
35 | CCACAGCAAUAUUACGAAGU | -3.69 ± 0.18 | -3.17 ± 0.21
36 | ACUGAGCAAUAUUACGAAAA | – | -1.32 ± 0.43
37 | ACACAGCAAUAUUACGUGAA | -1.84 ± 0.055 | -1.11 ± 0.079
38 | UGGGAGCAAUAUUACGCUGU | – | -1.2 ± 0.41
39 | AGUAAGCAAUAUUACGGGAU | -3.01 ± 0.25 | -1.12 ± 0.15
40 | CGCCAGCAAUAUUACGUACA | -2.74 ± 0.2 | -0.166 ± 0.17
41 | GACUAGCAAUAUUACGAGUA | -0.991 ± 0.067 | -0.253 ± 0.069
42 | ACCCAGCAAUAUUACGAGCA | -0.745 ± 0.08 | -1.31 ± 0.088
43 | AUGGAGCAAUAUUACGAUGG | -2.22 ± 0.29 | -2.47 ± 0.44
